The numbers were not newly measured in article PMC6678900, which cites them from elsewhere.

Bounds are passed on as bounds.

In data set [1] the target is TRAILR1 (Homo sapiens) (UniProt O00220).
In data set [2] the target is TRAILR2 (Homo sapiens) (UniProt O14763).
Data set [3] deals with TRAILR4 (Homo sapiens) (UniProt Q9UBN6).

By Kd is commonly meant the free concentration of one partner at which half of the binding sites on the other are occupied at equilibrium, for simple one-to-one binding. Consider TRAILR1 (from UniProt O00220), for which, in data set [1], the Kd is greater than 1000 nM.

Consider TRAILR2 (from UniProt O14763), for which, in data set [2], the Kd is greater than 1000 nM.

For TRAILR4 (from UniProt Q9UBN6), the Kd in data set [3] is greater than 1000 nM.
